Biological target: T1, recombinant hPD1 (Sino Biologicals, reference 10377-H08H) (human, UniProt Q15116 25-167)
T1 construct: also called Human recombinant PD-1; rPD1
Experiment: ELISA: human recombinant PD-1 immobilised, detection with anti-human Fc-peroxidase, TMB
Procedure: PD-1 binding ELISA assay. Human recombinant PD-1 (rPD1) protein was immobilized, and antibodies were added at different concentrations. Revelation was performed with an anti-human Fc antibody coupled to peroxidase. Colorimetry was determined at 450 nm using TMB substrate. The bifunctional molecules comprising an IL7 W142H N297A variant with 1 anti PD-1 arm ( ) was tested as control.

T1 sequence (Q15116 25-167 limits assumed): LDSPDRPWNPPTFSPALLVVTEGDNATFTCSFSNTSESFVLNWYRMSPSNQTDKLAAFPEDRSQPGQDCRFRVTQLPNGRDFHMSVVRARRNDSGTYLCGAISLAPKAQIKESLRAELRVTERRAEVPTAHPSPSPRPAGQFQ

Row | Binder | EC50 (read off the curve)
1 | anti PD-1*1 IL7 W142H*1 N297A DHS (other, also called IL7 W142H N297A DHS) DKTHTCPPCPAPELLGGPSVFLFPPKPKDTLMISRTPEVTCVVVDVSHEDPEVKFNWYVDGVEVHNAKTKPREEQYASTYRVVSVLTVDHHDWLNGKEYKCKVSNKALPAPIEKTISKAKGQPREPQVYTLPPCRDELTKNQVSLWCLVKGFYPSDIAVEWESNGQPENNYKTTPPVLDSDGSFFLYSKLTVDKSRWQQGNVFSCSVMHEALHSHYTQKSLSLSPGK heavy: QIQLVQSGSELKKPGASVKVSCKASGYTFTHYAMNWVRQAPGQGLEWMGWINTNTGEPTYAQGFTGRFVFSLDTSVSTAYLQISSLKAEDTAVYYCAREREPGMDNWGQGTLVTVSSASTKGPSVFPLAPSSKSTSGGTAALGCLVKDYFPEPVTVSWNSGALTSGVHTFPAVLQSSGLYSLSSVVTVPSSSLGTQTYICNVNHKPSNTKVDKKVEPKSCDKTHTCPPCPAPELLGGPSVFLFPPKPKDTLMISRTPEVTCVVVDVSHEDPEVKFNWYVDGVEVHNAKTKPREEQYASTYRVVSVLTVDHHDWLNGKEYKCKVSNKALPAPIEKTISKAKGQPREPQVCTLPPSRDELTKNQVSLSCAVKGFYPSDIAVEWESNGQPENNYKTTPPVLDSDGSFFLVSKLTVDKSRWQQGNVFSCSVMHEALHSHYTQKSLSLSPGKGGGGSGGGGSGGGGSDCDIEGKDGKQYESVLMVSIDQLLDSMKEIGSNCLNNEFNFFKRHICDANKEGMFLFRAARKLRQFLKMNSTGDFDLHLLKVSEGTTILLNCTGQVKGRKPAALGEAQPTKSLEENKSLKEQKKLNDLCFLKRLLQEIKTCHNKILMGTKEH light: DVVMTQSPLSLPVTLGQPASISCRSSQSLVHANTNTYLEWYQQRPGQSPRLLIYKVSNRFSGVPDRFSGSGSGTDFTLKISRVEAEDVGVYYCFQGTHVPNTFGQGTKLEIKRTVAAPSVFIFPPSDEQLKSGTASVVCLLNNFYPREAKVQWKVDNALQSGNSQESVTEQDSKDSTYSLSSTLTLSKADYEKHKVYACEVTHQGLSSPVTKSFNRGEC | ~0.05 µg/mL
2 | anti PD-1*1 IL7 W142H*1 N297A LS (other, Fc mutant of anti PD-1*1 IL7W142H*1; also called IL7 W142H N297A LS) DKTHTCPPCPAPELLGGPSVFLFPPKPKDTLMISRTPEVTCVVVDVSHEDPEVKFNWYVDGVEVHNAKTKPREEQYASTYRVVSVLTVLHQDWLNGKEYKCKVSNKALPAPIEKTISKAKGQPREPQVYTLPPCRDELTKNQVSLWCLVKGFYPSDIAVEWESNGQPENNYKTTPPVLDSDGSFFLYSKLTVDKSRWQQGNVFSCSVLHEALHSHYTQKSLSLSPGK heavy: QIQLVQSGSELKKPGASVKVSCKASGYTFTHYAMNWVRQAPGQGLEWMGWINTNTGEPTYAQGFTGRFVFSLDTSVSTAYLQISSLKAEDTAVYYCAREREPGMDNWGQGTLVTVSSASTKGPSVFPLAPSSKSTSGGTAALGCLVKDYFPEPVTVSWNSGALTSGVHTFPAVLQSSGLYSLSSVVTVPSSSLGTQTYICNVNHKPSNTKVDKKVEPKSCDKTHTCPPCPAPELLGGPSVFLFPPKPKDTLMISRTPEVTCVVVDVSHEDPEVKFNWYVDGVEVHNAKTKPREEQYASTYRVVSVLTVLHQDWLNGKEYKCKVSNKALPAPIEKTISKAKGQPREPQVCTLPPSRDELTKNQVSLSCAVKGFYPSDIAVEWESNGQPENNYKTTPPVLDSDGSFFLVSKLTVDKSRWQQGNVFSCSVLHEALHSHYTQKSLSLSPGKGGGGSGGGGSGGGGSDCDIEGKDGKQYESVLMVSIDQLLDSMKEIGSNCLNNEFNFFKRHICDANKEGMFLFRAARKLRQFLKMNSTGDFDLHLLKVSEGTTILLNCTGQVKGRKPAALGEAQPTKSLEENKSLKEQKKLNDLCFLKRLLQEIKTCHNKILMGTKEH light: DVVMTQSPLSLPVTLGQPASISCRSSQSLVHANTNTYLEWYQQRPGQSPRLLIYKVSNRFSGVPDRFSGSGSGTDFTLKISRVEAEDVGVYYCFQGTHVPNTFGQGTKLEIKRTVAAPSVFIFPPSDEQLKSGTASVVCLLNNFYPREAKVQWKVDNALQSGNSQESVTEQDSKDSTYSLSSTLTLSKADYEKHKVYACEVTHQGLSSPVTKSFNRGEC | ~0.03 µg/mL

Reference: patent publication US20240067727A1 (OSE IMMUNOTHERAPEUTICS, published 2024)
